This assay addresses HLA-A2-mCFP (human). Put plainly: FRET or BRET.

B1: Bap31-mYFP-KKEE (natural protein)
chain: MSLQWTAVATFLYAEVFVVLLLCIPFISPKRWQKIFKSRLVELLVSYGNTFFVVLIVILVLLVIDAVREIRKYDDVTEKVNLQNNPGAMEHFHMKLFRAQRNLYIAGFSLLLSFLLRRLVTLISQQATLLASNEAFKKQAESASEAAKKYMEENDQLKKGAAVDGGKLDVGNAEVKLEEENRSLKADLQKLKDELASTKQKLEKAENQVLAMRKQSEGLTKEYDRLLEEHAKLQAAVDGPMDKKEE
B1 returned an FRET efficiency at A:D of 1 of 5% and a fold FRET at A:D 1:1 after feeding Tax peptide, against controls of 2 fold.
